Data as given in PMC12373898 (Communications Biology, 2025).

Biological target: F-actin (pre-assembled, AlexaFluor-labeled) (rabbit, UniProt P68135 1-377, AlexaFluor-labeled actin added to the polymerisation)
Experiment: TIRF microscopy in vitro reconstitution

binding result: binds
B1: His-GFP-Maspin-StrepII (natural protein)
chain: MDALQLANSAFAVDLFKQLCEKEPLGNVLFSPICLSTSLSLAQVGAKGDTANEIGQVLHFENVKDVPFGFQTVTSDVNKLSSFYSLKLIKRLYVDKSLNLSTEFISSTKRPYAKELETVDFKDKLEETKGQINNSIKDLTDGHFENILADNSVNDQTKILVVNAAYFVGKWMKKFSESETKECPFRVNKTDTKPVQMMNMEATFCMGNIDSINCKIIELPFQNKHLSMFILLPKDVEDESTGLEKIEKQLNSESLSQWTNPSTMANAKVKLSIPKFKVEKMIDPKACLENLGLKHIFSEDTSDFSGMSETKGVALSNVIHKVCLEITEDGGDSIEVPGARILQHKDELNADHPFIYIIRHNKTRNIIFFGKFCSP
